According to paper PMC11793827 (PLOS Pathogens, 2025):

Columns and labels:
[1] = molecular target: T1, Omicron BA.1 SARS-CoV-2 RBD (SARS-CoV-2, Omicron BA.1, Q493R); experiment: ELISA; conditions: both partners purified
T1 construct: also called Omicron BA.1 RBD; BA.1 RBD

[2] = molecular target: T2, Omicron BA.5 SARS-CoV-2 RBD (SARS-CoV-2, Omicron BA.5 (RBD same as …, strain)); experiment: ELISA; conditions: both partners purified
T2 construct: also called Omicron BA.5 RBD; BA.5 RBD

B1: BP3D5 (VHH)
VHH: EVQLQASGGGFVQPGGSLRLSCAASGRAFRIYTMGWFRQAPGKEREFVSAISAGDGAASYYADSVKGRFTISRDNSKNTVYLQMNSLRAEDTATYYCAQYWQSINPIYWGQGTQVTVSS
notes: also called HCAb BP3D5
Kd [1]: 1.12 nM
Kd [2]: 1.83 nM
